Assay [1] concerns the target T1, human CD47 (human, UniProt Q08722).
T1 construct: CD47, human; the methods are in the Supplementary section; also called integrin-associated protein
As to the kind of experiment: not stated; binding affinity of IgG2σ mAbs to human and cynomolgus monkey CD47; method is described only in the Supplementary section.

Assay [2] concerns the target T2, cynomolgus monkey CD47 (Macaca fascicularis, UniProt A0A2K5X4I2).
T2 construct: CD47, cynomolgus monkey; also called cyno CD47
The assay is described as above.

Assay [3] has as its target T3, human CD47 (human, UniProt Q08722).
T3 construct: CD47, human; The crystal structures used the human CD47 extracellular domain with a C15G mutation; also called integrin-associated protein
As to the kind of experiment: not stated; binding affinity of IgG2σ mAbs to human and cyno CD47; the method stands in the Supplementary Information, not shown.

Assay [4] has as its target T4, cynomolgus monkey CD47 (Macaca fascicularis, UniProt A0A2K5X4I2).
T4 construct: CD47, cynomolgus monkey; also called cyno CD47
The assay is described as above.

B1: IgG2σ C47B161 (antibody, V domains shown)
VH: QVQLVQSGAEVKKPGASVKVSCKASGYTFTDYNMHWVRQAPGQRLEWMGDIYPYNGGTGYNQKFKGRVTITRDTSASTAYMELSSLRSEDTAVYYCARGGWHAMDSWGQGTLVTVSS
VL: DIVMTQSPLSLPVTPGEPASISCRSRQSIVHTNRYTYLAWYLQKPGQSPQLLIYKVSNRFSGVPDRFSGSGSGTDFTLKISRVEAEDVGVYYCFQGSHVPYTFGGGTKLEIK
notes: Human IgG2σ (effector function silent Fc)
With B1, the Kd (as a rule, the equilibrium constant for the complex coming apart) in assay [1] was 2.87 nM; in assay [2], 2.96 nM.

B2: anti-CD47 mAb B6H12.2 engineered with the human IgG2σ Fc (antibody, V domains shown)
VH: EVKLVESGGDLVKPGGSLKLSCAASGFTFSGYGMSWVRQTPDKRLEWVATITSGGTYTYYPDSVKGRFTISRDNAKNTLYLQIDSLKSEDTAIYFCARSLAGNAMDYWGQGTSVTVSS
VL: DIVMTQSPATLSVTPGDRVSLSCRASQTISDYLHWYQQKSHESPRLLIKFASQSISGIPSRFSGSGSGSDFTLSINSVEPEDVGVYYCQNGHGFPRTFGGGTKLEIK
notes: heavy chain of B6H12.2 with a human IgG2σ Fc; light chain of B6H12.2; also called IgG2σ B6H12.2
On to B2, for which the Kd in assay [3] was 0.5 nM; in assay [4] it was 0.6 nM.

B3: IgG2σ C47B222 (antibody, V domains shown)
VH: EVQLVQSGAEVKKPGESLKISCKGSGYSFTDYWIGWVRQMPGKGLEWMGIIYPGDSDTRYSPSFQGQVTISADKSISTAYLQWSSLKASDTAVYYCARVGRFASHQLDYWGQGTLVTVSS
VL: EIVLTQSPATLSLSPGERATLSCRASQSVNNRLAWYQQKPGQAPRLLIHWASTRAIGIPARFSGSGSGTDFTLTISSLEPEDFAVYYCQQGASWPFTFGQGTKVEIK
notes: as for B1
In the case of B3, the Kd in assay [1] is 1.12 nM; in assay [2] it was 0.84 nM.
